# Experiment: soluble on expression in E. coli; label from the status in PepcDB or PDB records
row,Sequence,soluble on expression in E. coli
1,CLEDILSATKMVINLCLPQFRPRIHCNKISADGYEVENLISEDLTKRSHGFRTEYFIKPPVYVTVSFPFNVEICRINIDLTAGGGQNVTGLEMYTSASSSRVSWNTPQCRTLGPAEPSVPDKEAFTLVGKVLLKNQSQVVFSHRGFKARPPFGAMEATLPSPAVVAQELWNKGALSLSHVAHLRICITHVTGGGIPCIKRLEVWGQPAKTCSQEVIDSILLVTSENLPQDVALQAPALPMESDCDPGDQPESQQAPSSLQKLAEIIQDVPEEFLDPITLEIMPCPMLLPSGKVIDQSTLEKCNRSEATWGRVPSDPFTGVAFTPHSQPLPHPSLKARIDHFLLQHSIPGCHLLGRAQTALAVIPSSIVLPSQKRKIEQAEHVPDSNFGVNASCFSATSPLVLPTTSEHTAKKMKATNEPSLTHMDCSTGPLSHEQKLSQSLEIALASTLGSMPSFTARLTRGQLQHLGTRGSNTSWRPGTGSEQPGSILGPECASCKRVFSPYFKKEPVYQLPCGHLLCRPCLGEKQRSLPMTCTACQRPVASQDVLRVHF,soluble
2,MGHHHHHHSHVEIIQKVVVKQILTEASKQELIEYYTEQKRQIEQECDQLHFEQKKMERKSKFQPERVADYFTHELDIRREKKKLIQFQMEQLEVLELGSEIREREMETIIDVQVGDKWDKSIFDKTIVVKDGIIVEIR,soluble
3,MSLRIFKHQGCSAVKIRSTALVKGFRQSAPYVNAHRGKTMVVMLGGEAIADKNFPNIISDIALLHSLGVKVVLVHGARPQINQILEKNQRDTPYHKGVRITDESSLGLVMQAAGQLQHAITARLSMSLNNTPMAGTQLNVVSGNFIISQPLGIDEGVDYCHSGRIRRIDVEGINRMLDLGSIVLLGPIASSVTGECFNLLSEEVATQVAIKLKADKLIGFCPQQGIIDTKGNAIAELFPSDVERLVKSMEQECAPDDEECFSTMRFLRAALKACRAGVPRSHLVSYKEDGALIQELFSFDGIGTQIVMASAEQIRQATIDDIGGIFDLIRPLEEQGILVRRSREQLEQEIHKFTIIDKDGLVIGCSALYPYPEERMAEMACVAIHPEYRDGHRGLHLLVHSKHQAKQMGIRHLFVLTTHSTHWFREQGFNEVDVEALPMAKKSLYNYQRRSKILMLQLEGHHHHHH,not soluble
4,DIEVSEDVRKEQLGWLSCVSRAILKQNIITYSQPIVHAYSHLPASQECLVRILEEDGTVIAPGRFLPIISDTHLYTRLSRHMIRSTLHYMRDKKGDFSINLSPQDLLSDKTLMLLEHEISQLNDPTRIGLEVLESEQIKDYGRMIEVCSHFRKLGARIIVDDFGSGYSNIDEILKLEPEVIKLDGSLIRDIDKDLKQRKIASQLVRLCQVFNAETVAEFVHNREVCKIAQDMGVDYLQGYYLGEP,not soluble
5,MSGTKASVFSTILQLMNSLAIRAVADNVRRLLEARRLSQKELAALSGVSQKSINDLLNYGGTVSKEPRLGTIEKLAKGFGIATWQLQIPGLPVDLLQGQMVSKVIENFRDAGTVGRENISRVAESEVRYSLVQNSERGAPR,not soluble
6,MGSDKIHHHHHHMESSFEVETRTVFDRYQRQQENDDHIFDRLVSLIEEEYFGLPTGSFRGLDVLDAGCGSNANASWAFLDKGARNVVSLELSNDWMDCARKRLSRFGLRSELVAGSVLDLPFDDFSFDFVHCAGVLPHTSNPKKGFEELARVTRPGGSFFLTIMGTANGVIYRCINHLRELYQSDEQFRSSIDNLDASTAREAINWLLRIKDGEEKEYIPGENEFFRSLFDDDLFVTIRDRFQAPTYHEFAFTEAQIRGWYGECGFEKIRRISRYTKNFHNLRRFLAPMYRHYDHPLARFWFGDGCIQMIGEKPST,not soluble
7,MYHGMNPSNGDGFLEQQQQQQQPQSPQRLLAVILWFQLALCFGPAQLTGGFDDLQVCADPGIPENGFRTPSGGVFFEGSVARFHCQDGFKLKGATKRLCLKHFNGTLGWIPSDNSICVQEDCRIPQIEDAEIHNKTYRHGEKLIITCHEGFKIRYPDLHNMVSLCRDDGTWNNLPICQGCLRPLASSNGYVNISELQTSFPVGTVISYRCFPGFKLDGSAYLECLQNLIWSSSPPRCLALEGGRPEHLFPVLYFPHIRLAAAVLYFCPVLKSSPTPAPTCSSTSTTTSLF,soluble
8,EVVEDVLTNAIENGSSIQDIELTLKDMPQFDRERARTTAITEVLAASSAAQHESYAQSPAVKKKKWRHSGGKKNNPRENHIDLDGTVIGVDEEFQIPGSSETCMFPRDPKLSTRERVNCHCVLS,not soluble
9,SRMVLRGLLSEHPKKQMIPVIIYGAGRSGRQLLEAVKQMREYSAAAFVDDDPKLWHTVIYDLAVYQPDAIAFLIERYGVEKILLAIPGATQEQRRRIINKLEAYPCEVLTIPGMKDLMDGKISIGTLKKISVSDLLGRDSVAPDDRLMSADIEGKTVMVTGAGGSIGSELCRQIIRRRPEKLLLFELSEFALYAIEKELRETCIQKRLDTEILPFLGSVQNRTLLE,not soluble
10,MAHHHHHHMLSPTPLLQRYRLFHPCRENIPLHMNPAKSMFPLINSNNLLAKPRSNWQDFSGRKEFDEDHPLPVVASRLNERTTQHKWSHWDQYLNPQITQSVRDLTPTPEYVGMRSGHNMIKMGWMKIGGSWKYSRGYNDRRRVFARGQWQERKMTPRFMLAPRVSPGGPRNRYEGKLVFSRLKLSKLLWAIDTGRLNPNEVITVYHLHEAGVVAEGEIVWPGFVLISSGVSRVPYPIHIELQNASAESIRLIEEAGGSFTGVYMTHDGLYQELHPEEYPVFPEQEFPERKGLEGLATNPAKRGWLVRWYEDEGKYAHPEAGRRYSHYVRPPTERDFPATVGEYEMVKHHQKWHLNQPGTGTLLPWHSYNTADLLKRSAGRV,not soluble
11,MSLKQSHIRNFAIIAHIDHGKSTLADQIMSLTQTVSAREQHAQLLDDMTVEQAHGVTVKARTVRNYYQADDGQEYEYNLIDTPGHVDFNYEVAKSLAATEGAILLVDATQGVQAQTIANYRIAKQRQLTLIPVLNKVDLPSADIDAALAQLNDLDSAFTPEQVLQISAKTGQGVPAVLEAIKQRLPAPQGDLHQPLKALVFDSLYDPYQGVIAYVRLIDGQLKSQQALCLMQGQQDFNGKAIGVFAPQMHPQESLSAGDVGYVVTGIKDPRKVRVGDTLTSVATPTQRPLAGYQPAKSMVFAGLYPKNNDYPALKEAVQKLNLNDPSFTYVEERSEALGVGFRCGFLGTFHLQIIRERLHDEYGVDVLTTAPNVTYHVTLTNGQQVIVNNPVQFPAFSLIKEVTEPFMKAEITMPADNLNAVLKLAEQHKGTLIDLANSGDLIVASLKIPLSEIAYHFFSELKSVSHGFASLSTAFMANEVSDLVKVEVDINEGHHHHHH,soluble
12,MSDMSDLEDDQTGHCGSGEHSGPFDPKRHAREQHNALERRRRDNIKDMYTSLREVVPDANGERVQASRAVILKKAIESIEKGQSDSATLSVDVAEQESKNAKLREEIARLKAKKDPSSSQSIIQ,not soluble
13,MGSDKIHHHHHHMLYQLHEMQRAFLRPLAAFTDASSQLFTHPYSPLAYMPMSRQLAAGCELVHRIGKEYQKPAWNLPATEIQGKRVAVIEAVVLDKPFCRLVHFQRDVRRTAGRADPRVLLVAPLSGHHATLLRDTVRALLPAHDVYVTDWVDARMVPQDAGPFHLDDYVRYIQAFLRHLGPDTHVISVCQPTVPVLAAISLMASANDPCQPRSMVMMGGPIDPRESPTQVNRLATTKPYAWFESQLIHAVPAPYPGAGRRVYPGFLQHAGFMAMNPDRHLKSHYDFYLDLLRGDDGDAEAHRRFYDEYNAVLDMPAEFYLDTIRTVFQEWLPGGTWEIDGQLVRPADIRKTSLLTVEGELDDISGQGQTRAAIKLCSGIPAARKSHYTAVGCGHYGIFSGRRWRELICPKIAAFIRQS,not soluble
14,MKSLDDLDFDNRFARLGGAFSTEVLPDPIAEPRLVVASPAALALLDLPAETSDEALFAELFGGHKLWSEAEPRAMVYSGHQFGSYNPRLGDGRGLLLGEVINQAGEHWDLHLKGAGQTPYSRMGDGRAVLRSSIREFLASEALPALGIPSSRALCVIGSSTPVWREKKESAATLLRLAPSHVRFGHFEYFYYTRQHDQLKQLAAFVLEHHFADCNAAERPYAAMFRQVVERNAELIARWQAYGFCHGVMNTDNMSILGITFDYGPYAFLDDFDANHICNHSDDAGRYSFSNQVPIAHWNLAALAQALTPLVEVDELRASLDLFLPLYQAHYLDLMRRRLGLGVAAENDHALVQELLQRMQGSAVDYSLFFRRLGEETPERALASLRDDFVDREAFDRWAEAYRRRVEEEGGDQESRRRRMHAVNPLYVLRNYLAQQAIEAAEQGDYTEVRLLHQVLSRPFEEQPGMERFTRRPPDWGRHLEISCSS,not soluble
15,GTPLPENENMSLYQSRVTVGELEMLASRFVGRTRVRNAFAQYWSQQRETLLPNQQASSALIRHTERVLAGVFGASSAKLVLTSALQGRKMQLEEVATIVDEASELYDFSRGLLQGAIEHIG,not soluble
16,SLRAERLTSRVKALFSVLNYERARRPGLLGASVLGLDDIHRAWRTFVLRVRAQDPPPELYFVKVDVTGAYDTIPQDRLTEVIASIIKPQNTYCVRRYAVVQKAAHGHVRKAFKSHVSTLTDLQPYMRQFVAHLQETSPLRDAVVIEQSSSLNEASSGLFDVFLRFMCHHAVRIRGKSYVQCQGIPQGSILSTLLCSLCYGDMENKLFAGIRRDGLLLRLVDDFLLVTPHLTHAKTFLRTLVRGVPEYGCVVNLRKTVVNFPVEDEALGGTAFVQMPAHGLFPWCGLLLDTRTLEVQSDYSSYARTSIRASLTFNRGFKAGRNMRRKLFGVLRLKCHSLFLDLQVNSLQTVCTNIYKILLLQAYRFHACVLQLPFHQQVWKNPTFFLRVISDTASLCYSILKAKNAGMSLGAKGAAGPLPSEAVQWLCHQAFLLKLTRHRVTYVPLLGSLRTAQTQLSRKLPGTTLTALEAAANPALPSDFKTILDEG,not soluble
17,APVPTYQTLIVRPGDLQQSVLATGKLDALRKVDVGAQVSGQLKTLSVAIGDKVKKDQLLGVIDPEQAENQIKEVEATLMELRAQRQQAEAELKLARVTYSRQQRLAQTQAVSQQDLDNAATEMAVKQAQIGTIDAQIKRNQASLDTAKTNLDYTRIVAPMAGEVTQITTLQGQTVIAAQQAPNILTLADMSAMLVKAQVSEADVIHLKPGQKAWFTVLGDQLTRYEGQIKDVLPTPEKVNDAIFYYARFEVPNPNGLLRLDMTAQVHIQLTDVKNVLTIPLSALGDPVGDNRYKVKLLRNGETREREVTIGARNDTDVEIVKGLEAGDEVVIGEAKPGAAQ,soluble
18,MVMFMVFRILGRMTKIEKEIKEEEAKYDLIIKNEAKIEPIVAEEDMEFKQGDIKPIRIKKIKIPPMSVLLICPYGRHRVGHVVAVGEEVPMPIDVEREVDMAMFACGFEGEVKKGDLIGMLLILAAEKRELEHHHHHH,not soluble
19,METQDHTLYVLLGPTGVGKTDLSLDIAERLGSPIISADSRQIFRELPIGTAAPTPEQRAKVPHLFVGTHSVRDYYSAGMYEVEVLEALKELFRKYRGVLLTGGSMMYIDAVCRGIDDIPDPFPEVREELYARYAAEGLDGILAQLRLLDPDYYAKVDRRNYKRVIHGLEICLSTGRPFSSFHRHEAKERPFRIVKIGLYREREELCKRIDARVLEMMEQGLEEEARAVYPLRHLNALNTVGYKEMFEYFDGSIDRAEAVRRIQRNSRVYARKQMTWFRRDSTIRWFHPEADKGTVLTLVT,not soluble
20,MAGDPMGNNNSTKESTHDNHSDSSTHEEMDHSGSADVPEGLQESKNPKYKVGSQVIINTSHMKGMKGAEATVTGAYDTTAYVVSYTPTNGGQRVDHHKWVIQEEIKDAGDKTLQPGDQVILEASHMKGMKGATAEIDSAEKTTVYMVDYTSTTSGEKVKNHKWVTEDELSAKLEHHHHHH,soluble
21,MTSEKLSAACHCGSVVFTVQLSDGFHTARRCNCSFCRMRGAVAVSAPLSGIKVLKGQDKLTEYRFNTGKAVHFFCSVCGIYTFHQRRSNPDQYGVNVACIENVSPFDFACVEVNDGVTHPSDGGSSGVVGYLRYEPKKSPPVETGGKNILEHHHHHH,soluble

# From the DeepSol protein solubility set
